Assay results taken from patent US20170247475A1 (Boehringer Ingelheim, published 2017).

T1: human VEGF-D (human, UniProt O43915 93-201)
T1 construct: also called hVEGF-D
T1 sequence (looked up): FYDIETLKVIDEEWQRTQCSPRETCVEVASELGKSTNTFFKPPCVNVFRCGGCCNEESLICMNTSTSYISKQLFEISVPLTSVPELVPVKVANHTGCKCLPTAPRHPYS

T2: human VEGF-C (human, UniProt P49767 103-227)
T2 construct: also called hVEGF-C
T2 sequence (looked up): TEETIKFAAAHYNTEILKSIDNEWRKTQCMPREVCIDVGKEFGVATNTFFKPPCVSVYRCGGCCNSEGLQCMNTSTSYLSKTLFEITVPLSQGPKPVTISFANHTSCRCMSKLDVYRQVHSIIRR

T3: human PIGF (human, UniProt P49763-2 21-149, limits assumed)
T3 construct: also called hPIGF; PLGF
T3 sequence (looked up): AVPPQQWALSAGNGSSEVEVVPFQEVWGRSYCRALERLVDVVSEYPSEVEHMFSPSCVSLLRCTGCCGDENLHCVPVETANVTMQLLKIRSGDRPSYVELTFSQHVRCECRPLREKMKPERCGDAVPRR

T4: human VEGF-B (human, UniProt P49765-2 22-188, limits assumed)
T4 construct: also called hVEGF-B
T4 sequence (looked up): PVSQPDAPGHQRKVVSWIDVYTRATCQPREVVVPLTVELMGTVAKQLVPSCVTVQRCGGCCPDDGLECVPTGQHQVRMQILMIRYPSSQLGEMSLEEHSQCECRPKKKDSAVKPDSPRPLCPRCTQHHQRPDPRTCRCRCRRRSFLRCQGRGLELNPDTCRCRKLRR

T5: recombinant human VEGF121 (human, UniProt P15692-9 27-147)
T5 construct: also called rhVEGF121; hVEGF121
T5 sequence (looked up): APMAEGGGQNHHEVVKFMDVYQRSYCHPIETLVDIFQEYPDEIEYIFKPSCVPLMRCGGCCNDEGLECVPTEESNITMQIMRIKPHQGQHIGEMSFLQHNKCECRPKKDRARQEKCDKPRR

B1: recombinant mouse VEGF164 (ligand, UniProt Q00731-2 27-190, looked up)
chain: APTTEGEQKSHEVIKFMDVYQRSYCRPIETLVDIFQEYPDEIEYIFKPSCVPLMRCAGCCNDEALECVPTSESNITMQIMRIKPHQSQHIGEMSFLQHSRCECRPKKDRTKPENHCEPCSERRKHLFVQDPQTCKCSCKNTDSRCKARQLELNERTCRCDKPRR
notes: biotinylated in the mVEGFR2 AlphaScreen; also called rmVEGF164; mVEGF164

Key:
human VEGFR2-Fc chimera = target: T6, human VEGFR2-Fc chimera (human, UniProt P35968 20-764); test: ELISA, coated VEGF109
T6 construct: bought (R&D Systems); also called hVEGFR2-Fc; VEGFR2-huFc
Experimental: (§1) Expression is induced by addition of 1 mM IPTG and allowed to continue for 4 hours at 37° C. Cells are harvested by centrifugation and lysed by sonication of the cell pellet. Inclusion bodies are isolated by centrifugation. […] The refolded protein is purified by ion exchange chromatography using a MonoQ5/50GL (Amersham BioSciences) column followed by gel filtration with a Superdex75 10/300 GL column (Amersheim BioSciences). […] To this end, 1 μg/mL of recombinant human VEGF109 is immobilized overnight at 4° C. in a 96-well MaxiSorp plate (Nunc, Wiesbaden, Germany). Wells are blocked with a casein solution (1%).

human VEGFR1-Fc chimera [1] = target: T7, human VEGFR1-Fc chimera (human, UniProt P17948 27-756); test: ELISA, coated VEGF109
T7 construct: bought (R&D Systems); also called hVEGFR1-Fc
Experimental: as §1

human VEGF-D [2] = target: T1, human VEGF-D; test: binding ELISA on coated VEGF-D
Experimental: (§2) Binding to VEGFB, VEGFC, VEGFD and PIGF is assessed via a solid phase binding ELISA. In brief, VEGFB, VEGFC, VEGFD and PIGF (R&D Systems, Minneapolis, Minn., USA) are coated overnight at 4° C. at 1 μg/mL in a 96-well MaxiSorp plate (Nunc, Wiesbaden, Germany). Wells are blocked with a casein solution (1% in PBS). […] As positive controls serial dilutions of the appropriate receptors are taken along and detected with horseradish peroxidase (HRP)-conjugated goat anti-human IgG, Fc specific antibody (Jackson Immuno Research Laboratories Inc., West Grove, Pa., USA) and a subsequent enzymatic reaction in the presence of the substrate TMB (3,3′,5,5′-tetramentylbenzidine) (Pierce, Rockford, Ill., USA).

human VEGF-C = target: T2, human VEGF-C; test: binding ELISA on coated VEGFC
[3] = target: T8, recombinant human VEGF165 (human, UniProt P15692-4 27-191); test: VEGF165/hVEGFR1-Fc competition AlphaScreen
T8 construct: also called hVEGF165; rhVEGF165
Experimental: (§3) Finally, streptavidin donor beads (20 μg/ml) are added and after 1 hour of incubation in the dark, fluorescence is measured on the Envision microplate reader.

[4] = target: B1; test: binding ELISA on coated mouse VEGF164
Experimental: (§4) Cross-reactivity to mouse VEGF164 is determined using a binding ELISA. […] Wells are blocked with a casein solution (1% in PBS). […] A mouse VEGF164 reactive mAb is included as positive control.

human PIGF = target: T3, human PIGF; test: binding ELISA on coated PIGF
Experimental: as §2

[5] = target: T8, recombinant human VEGF165; test: kd1; SPR Biacore T100, hVEGF165 on chip, Two State Reaction model
Experimental: (§5) Samples are injected for 2 min and allowed to dissociate up to 20 min at a flow rate of 45 μI/min. In between sample injections, the chip surface is regenerated with 100 mM HCl. HBS-EP+(Hepes buffer pH7.4+EDTA) is used as running buffer. Binding curves are fitted using a Two State Reaction model by Biacore T100 Evaluation Software v2.0.1.
(§6) ^{(a)}KD = kd1/kₐ₁ * (kd2/(kd2 + kₐ₂)) ^{(b)}Curves are fitted using a Two State Reaction model by Biacore T100 Evaluation Software v2.0.1

[6] = target: T8, recombinant human VEGF165; test: hVEGF165/hVEGFR2-Fc competition AlphaScreen
Experimental: as §3

[7] = target: T8, recombinant human VEGF165; test: VEGF165/hVEGFR1-Fc competition ELISA
[8] = target: T8, recombinant human VEGF165; test: SPR Biacore T100, Two State Reaction model; KD = kd1/ka1 * (kd2/(kd2 + ka2))
Experimental: as §5, §6

[9] = target: T8, recombinant human VEGF165; test: hVEGF165/hVEGFR2-Fc competition ELISA
human VEGF-B = target: T4, human VEGF-B; test: binding ELISA on coated VEGFB
Experimental: as §2

[10] = target: T8, recombinant human VEGF165; test: binding ELISA, coated rhVEGF165
[11] = target: T5, recombinant human VEGF121; test: binding ELISA, coated rhVEGF121
Experimental: Binding to recombinant human VEGF121 is assessed via a solid phase binding ELISA. Briefly, recombinant human VEGF121 (R&D Systems, Minneapolis, Minn., USA) is coated overnight at 4° C. at 1 μg/mL in a 96-well MaxiSorp plate (Nunc, Wiesbaden, Germany). Wells are blocked with a casein solution (1% in PBS).

VEGF [12] = test: cell-based or functional assay
VEGF [13] = test: cell-based or functional assay; remark: listed apart in the source
[14] = target: T8, recombinant human VEGF165; test: ka1; SPR Biacore T100, hVEGF165 on chip, Two State Reaction model
Experimental: as §5, §6

[15] = target: T8, recombinant human VEGF165; test: SPR Biacore T100, hVEGF165 on chip, Two State Reaction model
Experimental: as §5, §6

human VEGFR1-Fc chimera [16] = target: T7, human VEGFR1-Fc chimera; test: ELISA, coated KLH conjugated VEGF165
human VEGF-D [17] = target: T1, human VEGF-D; test: binding ELISA on coated VEGF D
Experimental: as §2

[18] = target: B1; test: binding ELISA, coated rmVEGF164
Experimental: as §4

[19] = target: B1; test: mVEGF164/mVEGFR2-hFc competition AlphaScreen
Experimental: Finally, streptavidin donor beads (20 μg/ml) are added and after 1 hour of incubation fluorescence is measured on the Envision microplate reader.

[20] = target: T8, recombinant human VEGF165; test: VEGF/VEGFR1 competition AlphaScreen
Experimental: as §3

[21] = target: T8, recombinant human VEGF165; test: VEGF/VEGFR2 competition AlphaScreen
Experimental: as §3

mouse VEGFR2-huFc = target: T9, mouse VEGFR2-huFc (mouse, UniProt P35918 20-762, limits assumed); test: mVEGF164/mVEGFR2-hFc competition AlphaScreen, unlabelled mVEGF164 as competitor
T9 construct: also called mVEGFR2-huFc; mVEGFR2-hFc
T9 sequence (P35918 20-762 limits assumed): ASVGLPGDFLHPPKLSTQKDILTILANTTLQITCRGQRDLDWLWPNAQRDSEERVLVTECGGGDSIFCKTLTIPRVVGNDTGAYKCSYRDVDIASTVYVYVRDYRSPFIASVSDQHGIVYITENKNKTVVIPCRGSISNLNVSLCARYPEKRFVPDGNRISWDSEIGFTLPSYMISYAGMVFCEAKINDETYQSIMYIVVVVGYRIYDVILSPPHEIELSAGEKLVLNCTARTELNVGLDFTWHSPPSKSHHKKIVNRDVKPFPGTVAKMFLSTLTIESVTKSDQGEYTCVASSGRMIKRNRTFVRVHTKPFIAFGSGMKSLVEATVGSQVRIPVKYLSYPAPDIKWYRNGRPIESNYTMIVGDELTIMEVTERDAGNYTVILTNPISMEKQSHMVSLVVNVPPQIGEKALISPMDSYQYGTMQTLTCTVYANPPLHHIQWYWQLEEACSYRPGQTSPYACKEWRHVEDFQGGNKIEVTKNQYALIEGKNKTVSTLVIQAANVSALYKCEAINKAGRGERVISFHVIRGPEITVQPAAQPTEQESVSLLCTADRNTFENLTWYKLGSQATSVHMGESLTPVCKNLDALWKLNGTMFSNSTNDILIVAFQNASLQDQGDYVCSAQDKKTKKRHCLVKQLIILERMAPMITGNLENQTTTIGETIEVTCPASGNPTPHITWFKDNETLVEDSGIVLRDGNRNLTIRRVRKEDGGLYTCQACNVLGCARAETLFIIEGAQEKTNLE

T7 sequence (P17948 27-756, change not shown): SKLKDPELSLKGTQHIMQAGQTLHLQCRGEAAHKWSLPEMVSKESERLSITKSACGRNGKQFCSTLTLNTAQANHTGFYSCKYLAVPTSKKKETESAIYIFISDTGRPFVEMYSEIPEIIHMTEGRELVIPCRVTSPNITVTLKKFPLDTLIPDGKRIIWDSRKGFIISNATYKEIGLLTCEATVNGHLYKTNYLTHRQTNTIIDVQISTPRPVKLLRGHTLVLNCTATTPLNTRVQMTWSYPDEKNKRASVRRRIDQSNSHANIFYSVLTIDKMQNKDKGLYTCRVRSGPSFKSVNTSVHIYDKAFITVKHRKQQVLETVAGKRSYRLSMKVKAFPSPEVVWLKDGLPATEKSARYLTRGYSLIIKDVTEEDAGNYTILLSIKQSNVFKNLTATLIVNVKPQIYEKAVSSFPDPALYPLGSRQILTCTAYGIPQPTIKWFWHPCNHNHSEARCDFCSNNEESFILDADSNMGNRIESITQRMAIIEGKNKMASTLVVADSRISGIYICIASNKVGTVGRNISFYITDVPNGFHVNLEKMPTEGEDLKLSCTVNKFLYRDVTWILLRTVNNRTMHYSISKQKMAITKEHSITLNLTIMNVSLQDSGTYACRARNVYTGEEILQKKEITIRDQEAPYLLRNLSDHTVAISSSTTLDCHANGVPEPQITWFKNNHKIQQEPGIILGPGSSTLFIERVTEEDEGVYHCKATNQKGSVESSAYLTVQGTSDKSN
T6 sequence (P35968 20-764, change not shown): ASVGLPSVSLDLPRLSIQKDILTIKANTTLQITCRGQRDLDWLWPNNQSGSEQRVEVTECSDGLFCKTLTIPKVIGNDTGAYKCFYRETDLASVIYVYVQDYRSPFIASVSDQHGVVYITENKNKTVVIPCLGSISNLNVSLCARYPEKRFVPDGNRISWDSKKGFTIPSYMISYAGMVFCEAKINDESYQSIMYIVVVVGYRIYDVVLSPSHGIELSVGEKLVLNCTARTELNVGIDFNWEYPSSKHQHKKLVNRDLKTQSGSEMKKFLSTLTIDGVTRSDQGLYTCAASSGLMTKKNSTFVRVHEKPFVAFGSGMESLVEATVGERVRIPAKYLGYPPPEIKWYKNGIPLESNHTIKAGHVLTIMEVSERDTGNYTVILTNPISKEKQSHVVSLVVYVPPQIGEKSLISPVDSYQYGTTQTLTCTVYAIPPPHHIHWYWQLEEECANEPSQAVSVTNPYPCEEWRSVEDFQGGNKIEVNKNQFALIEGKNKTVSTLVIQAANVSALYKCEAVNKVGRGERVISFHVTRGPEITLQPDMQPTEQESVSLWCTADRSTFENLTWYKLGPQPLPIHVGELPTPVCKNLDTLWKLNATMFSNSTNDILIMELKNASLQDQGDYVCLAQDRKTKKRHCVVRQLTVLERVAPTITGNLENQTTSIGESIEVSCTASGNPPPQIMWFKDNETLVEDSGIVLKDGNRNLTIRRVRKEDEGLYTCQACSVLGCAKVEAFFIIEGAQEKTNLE

Row | binding result (human VEGF-C) | % inhibition [3] | IC50 [3] | binding result (human PIGF) | koff [5] | % inhibition [6] | IC50 [6] | % inhibition [7] | IC50 [7] | Kd [8] | % inhibition [9] | IC50 [9] | binding result (human VEGF-B) | EC50 [10] | EC50 [11] | % inhibition, VEGF HUVEC Erk phosphorylation assay (VEGF [12]) | IC50 (nM), VEGF HUVEC Erk phosphorylation assay (VEGF [12]) | % inhibition, VEGF HUVEC proliferation assay (VEGF [13]) | IC50 (nM), VEGF HUVEC proliferation assay (VEGF [13]) | kon [14] | Binder | further results
1 | – | – | – | – | – | – | – | – | – | – | – | – | – | – | – | – | – | – | – | – | recombinant human VEGF109 (ligand, UniProt P15692 207-315, looked up, also called rhVEGF109) APMAEGGGQNHHEVVKFMDVYQRSYCHPIETLVDIFQEYPDEIEYIFKPSCVPLMRCGGCCNDEGLECVPTEESNITMQIMRIKPHQGQHIGEMSFLQHNKCECRPKKD | binding result (human VEGFR2-Fc chimera): binds; binding result (human VEGFR1-Fc chimera [1]): binds
2 | no binding (tested: 5e-7 M) | 70% | 0.021 nM | no binding (tested: 5e-7 M) | 0.017 s⁻¹ | 100% | 0.016 nM | 67% | 0.0735 nM | 0.16 nM | 100% | 0.049 nM | no binding (tested: 5e-7 M) | 0.428 nM | 0.92 nM | 92% | 0.19 nM | 95% | 0.22 nM | 450000 M⁻¹ s⁻¹ | VEGFBII010 (VHH, bivalent VHH in one chain; also called VEGFBII23B04-35GS-23B04; homodimeric VEGFBII23B04) EVQLVESGGGLVQTGDSLRLSCEVSGRTFSSYSMGWFRQAQGKEREFVVAISKGGYKYDSVSLEGRFTISKDNAKNTVYLQINSLKPEDTAVYYCASSRAYGSSRLRLADTYEYWGQGTQVTVSSGGGGSGGGGSGGGGSGGGGSGGGGSGGGGSGGGGSEVQLVESGGGLVQTGDSLRLSCEVSGRTFSSYSMGWFRQAQGKEREFVVAISKGGYKYDSVSLEGRFTISKDNAKNTVYLQINSLKPEDTAVYYCASSRAYGSSRLRLADTYEYWGQGTQVTVSS | binding result (human VEGF-D [2]): no binding (tested: 5e-7 M); binding result [4]: binds; ka2 [15]: 0.029 s⁻¹; kd2 [15]: 0.00013 s⁻¹
3 | – | – | – | – | – | – | – | – | – | – | – | – | – | – | – | – | – | – | – | – | KLH conjugated VEGF165 (ligand, human, UniProt P15692-4 27-191, looked up, conjugated to mariculture keyhole limpet hemocyanin (mcKLH) with EDC, also called VEGF165-KLH) APMAEGGGQNHHEVVKFMDVYQRSYCHPIETLVDIFQEYPDEIEYIFKPSCVPLMRCGGCCNDEGLECVPTEESNITMQIMRIKPHQGQHIGEMSFLQHNKCECRPKKDRARQENPCGPCSERRKHLFVQDPQTCKCSCKNTDSRCKARQLELNERTCRCDKPRR | binding result (human VEGFR1-Fc chimera [16]): binds
4 | no binding (tested: 5e-7 M) | 98% | 0.009 nM | no binding (tested: 5e-7 M) | 0.0091 s⁻¹ | 100% | 0.007 nM | 89% | 0.225 nM | 0.14 nM | 100% | 0.164 nM | no binding (tested: 5e-7 M) | 0.224 nM | 0.54 nM | 94% | 0.18 nM | 100% | 0.34 nM | 1.2e+06 M⁻¹ s⁻¹ | VEGFBII022 (VHH, biparatopic bivalent VHH in one chain; also called VEGFBII23B04-9GS-5B05) EVQLVESGGGLVQTGDSLRLSCEVSGRTFSSYSMGWFRQAQGKEREFVVAISKGGYKYDSVSLEGRFTISKDNAKNTVYLQINSLKPEDTAVYYCASSRAYGSSRLRLADTYEYWGQGTQVTVSSGGGGSGGGSEVQLVESGGGLVQPGGSLRLSCVASGIRFMSMAWYRQAPGKHRELVARISSGGTTAYVDSVKGRFTISRDNSKNTVYLQMNSLKAEDTAVYYCNTFSSRPNPWGAGTQVTVSS | binding result (human VEGF-D [17]): no binding (tested: 5e-7 M); EC50 [18]: 0.464 nM; IC50 [19]: 108 nM; % inhibition [20]: 100%; IC50 [20]: 0.008 nM; IC50 [21]: 0.007 nM; ka2 [15]: 0.014 s⁻¹; kd2 [15]: 0.00026 s⁻¹
5 | – | – | – | – | – | – | – | – | – | – | – | – | – | – | – | – | – | – | – | – | B1 | IC50 (mouse VEGFR2-huFc): 0.05 nM
